Where two headings read alike, the source gives them in different places.
Legend:
[1] = target: SARS-CoV-2 RBD (SARS-CoV-2); test: sVNT, cPass kit with SARS-CoV-2 RBD-HRP; further: test concentration or dose not given here
[2] = target: SARS-CoV-1 RBD (SARS-CoV); test: ELISA, 100 ng coated RBD, anti-human IgG-HRP; further: unit not given here
[3] = target: SARS-CoV-2 RBD (SARS-CoV-2); test: ELISA, 100 ng coated RBD, anti-human IgG-HRP; further: unit not given here
[4] = target: SARS-CoV-1 RBD (SARS-CoV); test: sVNT, cPass kit format with SARS-CoV-1 RBD-HRP; further: test concentration or dose not given here
SARS-CoV-1 [5] = target: SARS-CoV-1
[6] = target: SARS-CoV-2 Lambda (SARS-CoV-2 Lambda)
SARS-CoV-1 [7] = target: SARS-CoV-1; remark: listed apart in the source
SARS-CoV-2 Gamma [8] = target: SARS-CoV-2 Gamma
[9] = target: Bat CoV RsSHC014 (SC1r-CoV RsSHC014)
[10] = target: Bat CoV WIV-1 (SC1r-CoV WIV-1)
Bat CoV BANAL-52 [11] = target: Bat CoV BANAL-52
[12] = target: Bat CoV Rs2018B (SC1r-CoV Rs2018B)
SARS-CoV-2 Mu [13] = target: SARS-CoV-2 Mu
[14] = target: SARS-CoV-2 Lambda (SARS-CoV-2 Lambda); remark: listed apart in the source
Bat CoV BANAL-52 [15] = target: Bat CoV BANAL-52; remark: listed apart in the source
SARS-CoV-2 Mu [16] = target: SARS-CoV-2 Mu; remark: listed apart in the source
SARS-CoV-2 Gamma [17] = target: SARS-CoV-2 Gamma; remark: listed apart in the source

S2X259 (VirBiotech) (antibody)
sVNT SARS-CoV-2 (% I) [1]: 94%
Binding SARS-CoV-1 [2]: 0.973
Binding SARS-CoV-2 [3]: 1.73
sVNT SARS-CoV-1 (% I) [4]: 92.8%

CR3022 (antibody)
sVNT SARS-CoV-2 (% I) [1]: 24.2%
Binding SARS-CoV-1 [2]: 1.19
Binding SARS-CoV-2 [3]: 1.46
sVNT SARS-CoV-1 (% I) [4]: 32.5%

LyCoV-1404 (Eli Lily) (antibody)
sVNT SARS-CoV-2 (% I) [1]: 0.144%
Binding SARS-CoV-1 [2]: 1.54
Binding SARS-CoV-2 [3]: 0.445
sVNT SARS-CoV-1 (% I) [4]: 94.5%

CR3022
IC50 (SARS-CoV-1 [5]): 0.397 µg/mL

S2X259
IC50 [6]: 0.047 µg/mL
IC50 (SARS-CoV-1 [7]): 0.871 µg/mL
IC50 (SARS-CoV-2 Gamma [8]): 0.102 µg/mL
IC50 [9]: 0.133 µg/mL
IC50 (Pangolin CoV GD-1): 0.112 µg/mL
IC50 [10]: 0.117 µg/mL
IC50 (Bat CoV LYRa11): 0.073 µg/mL
IC50 (Bat CoV BANAL-52 [11]): 0.097 µg/mL
IC50 [12]: 0.142 µg/mL
IC50 (SARS-CoV-2 Mu [13]): 0.067 µg/mL

LyCoV-1404
IC50 [14]: 0.077 µg/mL
IC50 (Bat CoV BANAL-52 [15]): 0.12 µg/mL
IC50 (SARS-CoV-2 Mu [16]): 0.067 µg/mL

S309 (Sotrovimab, GSK) (antibody)
sVNT SARS-CoV-2 (% I) [1]: 39.6%
Binding SARS-CoV-1 [2]: 1.22
Binding SARS-CoV-2 [3]: 1.55
sVNT SARS-CoV-1 (% I) [4]: 36.5%

S309
IC50 (SARS-CoV-2 Gamma [17]): 0.172 µg/mL
IC50 (SARS-CoV-2 Delta): 0.199 µg/mL
IC50 (SARS-CoV-2 Delta Plus): 0.24 µg/mL

Source: patent US20240254204A1
